Data reported in publication PMC6087011, “The mechanism by which a distinguishing arabinofuranosidase can cope with internal di-substitutions in arabinoxylans” (Biotechnology for Biofuels, 2018).

Key:
[1] = test system: O=[N+]([O-])c1ccc(O[C@@H]2O[C@@H](CO)[C@H](O)[C@H]2O)cc1; assay: purified protein; settings: pH 5.5 McIlvaine buffer, 50 °C
[2] = biological target: XacAbf51, GH51 α-L-arabinofuranosidase from Xanthomonas axonopodis pv. citri (X. axonopodis pv. citri str. 306); assay: AUC
[3] = biological target: XacAbf51, GH51 α-L-arabinofuranosidase from Xanthomonas axonopodis pv. citri (X. axonopodis pv. citri str. 306); assay: […]; 20 °C; […], pH 7.5; […]
[4] = biological target: XacAbf51, GH51 α-L-arabinofuranosidase from Xanthomonas axonopodis pv. citri (X. axonopodis pv. citri str. 306); assay: SAXS
[5] = substrate: O=[N+]([O-])c1ccc(O[C@@H]2O[C@@H](CO)[C@H](O)[C@H]2O)cc1; assay: colorimetric p-nitrophenolate release, A400; assay type: biochemical, Thermobacillus xylanilyticus; settings: pH 5.5 McIlvaine buffer, 50 °C
Text: colorimetric p-nitrophenolate release, A400 on TxAbfD3

## XacAbf51 (Xanthomonas citri subsp. citri 306)
[1]
  Km: 190 ± 10 µM
  kcat: 56.4 ± 0.8 s⁻¹
  kcat/Km: 300000 M⁻¹ s⁻¹

## XacAbf51, GH51 α-L-arabinofuranosidase from Xanthomonas axonopodis pv. citri (enzyme)
[2]
  stoichiometry N: 3
[3]
  stoichiometry N: 3
[4]
  stoichiometry N: 3

B1: TxAbfD3 (Thermobacillus xylanilyticus) (protein)
chain: MNVASRVVVNADRVKGTINRNIYGHFSEHLGRCIYEGLWVGEDSPIPNTNGIRNDVLEALKQMKIPVLRWPGGCFADEYHWKDGVGPREKRKRMVNTHWGGVIENNHFGTHEFMMLCELLGCEPYISGNVGSGTVQEMSEWVEYITFDGESPMANWRRENGREKPWRIKYWGVGNENWGCGGNMRAEYYADLYRQFQTYLRNYGDNKLHKIACGANTADYHWTEVLMKQAAPFMHGLSLHYYTVPGPWEKKGPATGFTTDEWWVTLKKALFMDRLVTKHSAIMDVYDPDKRIDLIVDEWGTWYDVEPGTNPGFLYQQNSIRDALVAGATLHIFHRHCDRVRMANIAQLVNVLQSVILTEGERMLLTPTYHVFNMFKVHQDAELLDTWESVERTGPEGELPKVSVSASRAADGKIHISLCNLDFETGASVDIELRGLNGGVSATGTTLTSGRIDGHNTFDEPERVKPAPFRDFKLEGGHLNASLPPMSVTVLELTAG
[5]
  Km: 520 ± 60 µM
  kcat: 154 ± 4.2 s⁻¹
  kcat/Km: 300000 M⁻¹ s⁻¹
